Measured values taken from patent US20200369765A1 (INNATE PHARMA, published 2020).

T1: Human Siglec-10 (human, UniProt Q96LC7 17-697)
T1 construct: Expressed on transfected CHO cells; also called HuSiglec-10
T1 sequence: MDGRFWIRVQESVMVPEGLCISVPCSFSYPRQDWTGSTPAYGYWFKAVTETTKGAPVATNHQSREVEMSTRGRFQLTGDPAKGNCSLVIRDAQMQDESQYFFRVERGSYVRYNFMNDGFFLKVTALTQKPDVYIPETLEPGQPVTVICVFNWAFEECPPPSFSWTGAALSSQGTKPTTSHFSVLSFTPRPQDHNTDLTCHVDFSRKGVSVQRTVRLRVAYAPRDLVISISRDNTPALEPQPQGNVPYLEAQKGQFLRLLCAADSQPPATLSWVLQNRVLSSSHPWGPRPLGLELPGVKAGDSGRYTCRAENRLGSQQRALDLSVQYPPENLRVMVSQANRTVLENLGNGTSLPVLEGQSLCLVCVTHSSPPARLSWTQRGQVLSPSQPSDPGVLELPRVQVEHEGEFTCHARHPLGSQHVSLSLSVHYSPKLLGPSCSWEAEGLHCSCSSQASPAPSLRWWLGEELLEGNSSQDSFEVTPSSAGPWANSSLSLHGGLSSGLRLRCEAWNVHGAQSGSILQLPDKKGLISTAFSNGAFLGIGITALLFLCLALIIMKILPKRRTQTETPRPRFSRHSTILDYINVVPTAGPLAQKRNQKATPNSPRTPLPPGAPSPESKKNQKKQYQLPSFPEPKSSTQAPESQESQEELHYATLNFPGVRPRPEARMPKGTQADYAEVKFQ

T2: Human Siglec-11 (human, UniProt Q96RL6 29-698)
T2 construct: Expressed on transfected CHO cells; also called HuSiglec-11
T2 sequence: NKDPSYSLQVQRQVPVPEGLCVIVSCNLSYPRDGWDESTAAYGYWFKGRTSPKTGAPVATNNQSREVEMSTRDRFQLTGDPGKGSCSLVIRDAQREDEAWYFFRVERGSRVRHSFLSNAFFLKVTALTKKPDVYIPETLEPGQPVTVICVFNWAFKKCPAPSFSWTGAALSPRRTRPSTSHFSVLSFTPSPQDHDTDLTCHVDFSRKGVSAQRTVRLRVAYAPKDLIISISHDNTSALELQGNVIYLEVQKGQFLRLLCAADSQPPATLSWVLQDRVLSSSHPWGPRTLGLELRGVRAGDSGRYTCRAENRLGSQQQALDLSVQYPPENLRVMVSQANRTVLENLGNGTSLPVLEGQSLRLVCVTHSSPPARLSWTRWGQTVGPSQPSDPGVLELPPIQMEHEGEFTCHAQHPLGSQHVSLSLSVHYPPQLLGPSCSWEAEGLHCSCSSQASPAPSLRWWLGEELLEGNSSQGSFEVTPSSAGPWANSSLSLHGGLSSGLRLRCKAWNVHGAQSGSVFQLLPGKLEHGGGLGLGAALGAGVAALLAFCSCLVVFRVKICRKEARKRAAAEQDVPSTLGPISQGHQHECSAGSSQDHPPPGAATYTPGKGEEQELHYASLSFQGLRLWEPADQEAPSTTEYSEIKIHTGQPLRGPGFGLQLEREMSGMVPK

T3: Human Siglec-5 (human, UniProt O15389 17-551)
T3 construct: Expressed on transfected CHO cells; also called HuSiglec-5
T3 sequence: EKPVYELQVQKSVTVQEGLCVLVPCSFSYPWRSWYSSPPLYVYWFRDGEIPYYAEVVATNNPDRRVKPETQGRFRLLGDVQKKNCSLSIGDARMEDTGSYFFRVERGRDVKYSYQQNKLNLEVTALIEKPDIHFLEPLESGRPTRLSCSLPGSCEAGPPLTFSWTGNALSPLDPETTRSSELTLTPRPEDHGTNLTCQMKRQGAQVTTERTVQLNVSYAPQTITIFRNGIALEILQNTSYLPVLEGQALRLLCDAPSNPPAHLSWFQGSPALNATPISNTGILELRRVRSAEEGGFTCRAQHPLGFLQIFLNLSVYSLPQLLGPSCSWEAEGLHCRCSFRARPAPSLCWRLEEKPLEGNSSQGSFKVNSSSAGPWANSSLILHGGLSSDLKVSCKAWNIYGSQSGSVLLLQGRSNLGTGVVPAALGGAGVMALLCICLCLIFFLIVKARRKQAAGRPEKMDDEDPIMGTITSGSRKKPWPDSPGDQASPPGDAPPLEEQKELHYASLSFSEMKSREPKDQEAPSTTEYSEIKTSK


Key:
Human Siglec-3 = molecular target: T4, Human Siglec-3 (human, UniProt P20138 18-364); test: flow cytometry, CHO transfectants
T4 construct: Expressed on transfected CHO cells; also called HuSiglec-3; CD33
T4 sequence (P20138 18-364 R69G): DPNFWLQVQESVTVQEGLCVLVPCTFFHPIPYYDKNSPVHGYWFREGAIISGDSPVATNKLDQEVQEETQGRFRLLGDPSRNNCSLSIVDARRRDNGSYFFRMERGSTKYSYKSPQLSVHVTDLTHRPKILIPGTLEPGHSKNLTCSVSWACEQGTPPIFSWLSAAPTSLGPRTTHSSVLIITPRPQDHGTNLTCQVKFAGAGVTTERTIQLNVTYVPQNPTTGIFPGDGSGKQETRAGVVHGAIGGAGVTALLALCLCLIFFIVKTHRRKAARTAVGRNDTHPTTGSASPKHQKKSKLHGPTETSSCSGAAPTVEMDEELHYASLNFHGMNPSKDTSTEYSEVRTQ

Human Siglec-12 = molecular target: T5, Human Siglec-12 (human, UniProt Q96PQ1 19-595); test: flow cytometry, CHO transfectants
T5 construct: Expressed on transfected CHO cells; also called HuSiglec-12
T5 sequence (Q96PQ1 19-595): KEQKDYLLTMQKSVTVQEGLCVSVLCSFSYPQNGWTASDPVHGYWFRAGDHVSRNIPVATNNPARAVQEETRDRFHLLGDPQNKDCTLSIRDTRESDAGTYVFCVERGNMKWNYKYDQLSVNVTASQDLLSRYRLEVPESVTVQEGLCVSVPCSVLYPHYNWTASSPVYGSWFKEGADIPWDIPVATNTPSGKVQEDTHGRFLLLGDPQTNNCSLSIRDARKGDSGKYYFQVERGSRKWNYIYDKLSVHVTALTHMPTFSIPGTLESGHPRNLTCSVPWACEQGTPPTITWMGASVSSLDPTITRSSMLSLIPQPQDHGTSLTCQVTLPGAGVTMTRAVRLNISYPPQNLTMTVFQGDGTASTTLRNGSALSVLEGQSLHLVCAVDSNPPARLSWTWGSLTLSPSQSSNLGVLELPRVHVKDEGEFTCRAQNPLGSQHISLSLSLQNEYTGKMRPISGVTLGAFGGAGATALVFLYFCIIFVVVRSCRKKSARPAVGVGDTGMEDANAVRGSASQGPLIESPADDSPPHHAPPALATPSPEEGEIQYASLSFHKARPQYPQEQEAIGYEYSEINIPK

Human Siglec-10 = molecular target: T1, Human Siglec-10; test: flow cytometry, CHO transfectants
Human Siglec-11 = molecular target: T2, Human Siglec-11; test: flow cytometry, CHO transfectants
Human Siglec-6 = molecular target: T6, Human Siglec-6 (human, UniProt O43699 27-453); test: flow cytometry, CHO transfectants
T6 construct: Expressed on transfected CHO cells; also called HuSiglec-6
T6 sequence (O43699 other isoform, or with tags, fused parts or gaps): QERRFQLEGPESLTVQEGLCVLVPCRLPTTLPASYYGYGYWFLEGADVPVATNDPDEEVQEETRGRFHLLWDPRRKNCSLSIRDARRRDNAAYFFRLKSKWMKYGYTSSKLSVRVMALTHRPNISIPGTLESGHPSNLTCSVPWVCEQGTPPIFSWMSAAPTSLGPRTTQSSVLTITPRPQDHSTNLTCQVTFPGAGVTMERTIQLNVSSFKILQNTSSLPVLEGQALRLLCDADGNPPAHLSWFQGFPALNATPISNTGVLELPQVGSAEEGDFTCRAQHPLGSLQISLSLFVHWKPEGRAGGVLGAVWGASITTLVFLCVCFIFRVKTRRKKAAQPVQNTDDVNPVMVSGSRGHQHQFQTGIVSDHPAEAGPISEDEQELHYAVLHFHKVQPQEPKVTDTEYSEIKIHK

Human Siglec-8 = molecular target: T7, Human Siglec-8 (human, UniProt Q9NYZ4 17-499); test: flow cytometry, CHO transfectants
T7 construct: Expressed on transfected CHO cells; also called HuSiglec-8
T7 sequence (Q9NYZ4 17-499): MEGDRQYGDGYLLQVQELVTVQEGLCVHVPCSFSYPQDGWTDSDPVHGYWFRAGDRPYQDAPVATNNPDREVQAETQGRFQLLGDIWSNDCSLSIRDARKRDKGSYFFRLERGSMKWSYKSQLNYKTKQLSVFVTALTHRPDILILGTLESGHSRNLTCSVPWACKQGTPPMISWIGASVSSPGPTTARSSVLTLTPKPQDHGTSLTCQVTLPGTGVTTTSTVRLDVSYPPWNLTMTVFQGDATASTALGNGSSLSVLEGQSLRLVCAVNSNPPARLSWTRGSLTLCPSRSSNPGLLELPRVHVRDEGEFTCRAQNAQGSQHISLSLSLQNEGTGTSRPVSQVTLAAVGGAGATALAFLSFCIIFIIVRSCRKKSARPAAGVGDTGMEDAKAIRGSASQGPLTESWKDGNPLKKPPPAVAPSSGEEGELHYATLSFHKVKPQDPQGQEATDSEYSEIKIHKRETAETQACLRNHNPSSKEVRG

Human Siglec-5 = molecular target: T3, Human Siglec-5; test: flow cytometry, CHO transfectants
[1] = molecular target: T8, Human Siglec-9 N-terminal V-set Ig-like domain (human); test: flow cytometry, HEK293T cells expressing single Siglec-9 domains
T8 construct: expressed on HEK293T cells

Human Siglec-9 mutant M8 = molecular target: T9, Human Siglec-9 mutant M8 (human, UniProt Q9Y336 18-463); test: flow cytometry, HEK293T transfectants
T9 construct: Expressed on HEK293T cells; also called Mutant 8
T9 sequence (Q9Y336 other isoform, or with tags, fused parts or gaps mutant): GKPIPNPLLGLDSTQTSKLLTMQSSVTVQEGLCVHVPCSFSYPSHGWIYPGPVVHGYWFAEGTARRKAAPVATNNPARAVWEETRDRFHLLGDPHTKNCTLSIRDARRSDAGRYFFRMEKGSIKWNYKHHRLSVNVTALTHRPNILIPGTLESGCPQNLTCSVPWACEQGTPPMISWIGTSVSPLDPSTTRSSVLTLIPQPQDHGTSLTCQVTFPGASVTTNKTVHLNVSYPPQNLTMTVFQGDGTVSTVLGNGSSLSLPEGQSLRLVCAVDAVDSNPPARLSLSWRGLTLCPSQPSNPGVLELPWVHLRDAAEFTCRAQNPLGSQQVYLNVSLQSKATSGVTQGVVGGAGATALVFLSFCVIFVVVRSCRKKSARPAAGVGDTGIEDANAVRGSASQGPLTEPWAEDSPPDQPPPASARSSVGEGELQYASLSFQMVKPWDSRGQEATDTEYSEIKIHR

| Binder | binding result (Human Siglec-3) | binding result (Human Siglec-12) | binding result (Human Siglec-10) | binding result (Human Siglec-11) | binding result (Human Siglec-6) | binding result (Human Siglec-8) | binding result (Human Siglec-5) | binding result [1] | binding result (Human Siglec-9 mutant M8) |
| --- | --- | --- | --- | --- | --- | --- | --- | --- | --- |
| mAbF (antibody, human IgG1, V domains shown) VH: QVQLQQSGPEVVRPGVSVKISCKGSGYTFTDYSMHWVKQSHAKSLEWIGVISTYNGNTNYNQKFKGKATMTVDKSSSTAYMELARLTSEDSAIYYCARRGYYGSSSWFGYWGQGTLVTVSA VL: DIVMTQSQKFMSTSVGDRVSVTCKASQNVGTDVAWYQQKPGQSPEALIYSASYRYSGVPDRFTGSGSGADFTLTISNVQSEDLAEYFCQQYNSFPYTFGGGTKLEIK | no binding | no binding | no binding | no binding | no binding | no binding | no binding | binds |  |
| mAbA (antibody, human IgG1, V domains shown) VH: QVQLQQPGAELVKPGSPVKLSCKASYFTFTSYWMHWVRQRPGQGLEWIGEINPSNGHTNYNEKFESKATLTVDRSSSTAYMQLSSLTSEDSAVFYCANGVESYDFDDALDYWGQGTSVTVSS VL: DIQMTQTTSSLSASLGDRVTISCRASQDINNYLNWYQQKPDGTIKLLIYYTSRLHSGVPSRFSGSGSGTDYSLTINNLEQEDIATYFCQQGNTLPFTFGGGTKLEIK | no binding | no binding | no binding | no binding | no binding | no binding | no binding | binds | binds |
| mAbC (antibody, human IgG1, V domains shown) VH: QIQLVQSGPELKKPGETVKISCKASGYTFTNYEMNWVKEAPGKGLKWMGWINTYTGESTYADDFKGRFAFSLETSASTVYLQINNLKDEDVATYFCVRDDYGRSYGFAYWGQGTLVTVSA VL: NIVLTQSPASLTVSLGQRANISCRASESVDSYGNSFMHWYQQKPGQPPKLLIYLASKLESGVPARFSGSGSRTDFTLTIDPVETDDAATYYCHQNNEDPPWTFGGGTKLEIK | no binding | no binding | no binding | no binding | no binding | no binding | no binding | binds |  |

Second part, the binder after the results:

| binding result (Human Siglec-3) | binding result (Human Siglec-12) | binding result (Human Siglec-10) | binding result (Human Siglec-11) | binding result (Human Siglec-6) | binding result (Human Siglec-8) | binding result (Human Siglec-5) | binding result [1] | binding result (Human Siglec-9 mutant M8) | Binder |
| --- | --- | --- | --- | --- | --- | --- | --- | --- | --- |
| no binding | no binding | no binding | no binding | no binding | no binding | no binding | binds |  | mAbE (antibody, human IgG1, V domains shown) VH: DVQLVESGGGLVQPGGSRKLSCAASGFTFSTFGMHWVRQAPEKGLEWVAYISSGSNAIYYADTVKGRFTISRDNPKNTLFLQMTSLRSEDTAMYYCASPGYGAWFAYWGQGTLVTVSA VL: ENVLTQSPAIMSASPGEKVTMTCRASSSVSSAYLHWYQQKSGASPKLWIYSTSNLASGVPARFSGSGSGTSYSLTISSVEAEDAATYYCQQYSAYPYTFGGGTKLEIK |
| no binding | no binding | no binding | no binding | no binding | no binding | no binding | binds | binds | mAbD (antibody, human IgG1, V domains shown) VH: QIQLVQSGPELKKPGETVKISCKASGYTFTDYSMHWVKQAPGKGLKWMGWIITETGEPTYADDFRGRFAFSLETSANTAYLQINNLKNEDTATYFCARDFDGYWGQGTTLTVSS VL: DILMTQSPASLSASVGETVTITCRASENIYSYLAWYQQKRGKSPQFLVYNAKTLTEGVPSRFRGSGSGTQFSLKINSLQPEDFGTYYCQHHYGFPWTFGGGTKLEIK |
